Results taken from the supplement of paper PMC10567573.

B1: C22orf31 (parent)
chain: YSLELGKAIKQKLWEALCSQGAIS

Variants of: B1
Assay: protein stability index of a GFP-peptide fusion (GPS, HEK-293T) (PSI 1-6); higher = more stable
Settings: c terminus: a fixed tail appended
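Also: lentivirally expressed fusions sorted by FACS into six bins by GFP to DsRed ratio, PSI derived from sequencing read proportions per bin multiplied by bin number.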

**Q.** Which protein stability index does the source give for K12P here?
**A.** 1.51

**Q.** Which protein stability index does the source give for K12H here?
**A.** 1.98

**Q.** With K12D as the variant, how does the protein stability index read?
**A.** 1.56

**Q.** With K12R as the variant, how does the protein stability index read?
**A.** 1.53

**Q.** With K12W as the variant, how does the protein stability index read?
**A.** 2.25

**Q.** Which protein stability index does the source give for G21D here?
**A.** 1.94

**Q.** Which protein stability index does the source give for G6R here?
**A.** 2.73

**Q.** With G6C as the variant, how does the protein stability index read?
**A.** 2.16

**Q.** For G6D, which protein stability index is on record?
**A.** 1.9

**Q.** With G6N as the variant, how does the protein stability index read?
**A.** 1.91

**Q.** With E15T as the variant, how does the protein stability index read?
**A.** 1.64

**Q.** For E15F, which protein stability index is on record?
**A.** 3

**Q.** For E15H, which protein stability index is on record?
**A.** 1.65

**Q.** With Q11A as the variant, how does the protein stability index read?
**A.** 2.47

**Q.** With Q11S as the variant, how does the protein stability index read?
**A.** 2.01

**Q.** For Q11W, which protein stability index is on record?
**A.** 3.82

**Q.** Which protein stability index does the source give for K10I here?
**A.** 2.95

**Q.** With K10R as the variant, how does the protein stability index read?
**A.** 1.15

**Q.** For K10D, which protein stability index is on record?
**A.** 1.63

**Q.** For S19R, which protein stability index is on record?
**A.** 2.46

**Q.** With I9H as the variant, how does the protein stability index read?
**A.** 2.07

**Q.** Which protein stability index does the source give for I9C here?
**A.** 1.79

**Q.** For I9S, which protein stability index is on record?
**A.** 1.97

**Q.** For I9Q, which protein stability index is on record?
**A.** 1.94

**Q.** Which protein stability index does the source give for I9M here?
**A.** 1.07

**Q.** Which protein stability index does the source give for I9N here?
**A.** 2.07

**Q.** For S2C, which protein stability index is on record?
**A.** 2.15

**Q.** With S2Y as the variant, how does the protein stability index read?
**A.** 3.28

**Q.** Which protein stability index does the source give for S2N here?
**A.** 2.79

**Q.** With S2H as the variant, how does the protein stability index read?
**A.** 2.43

**Q.** With L3D as the variant, how does the protein stability index read?
**A.** 1.38

**Q.** For L3Y, which protein stability index is on record?
**A.** 2.44

**Q.** Which protein stability index does the source give for L3N here?
**A.** 2.19

**Q.** With L3I as the variant, how does the protein stability index read?
**A.** 1.79

**Q.** With L3K as the variant, how does the protein stability index read?
**A.** 2.03

**Q.** With E4C as the variant, how does the protein stability index read?
**A.** 2.69

**Q.** Which protein stability index does the source give for E4I here?
**A.** 3.45

**Q.** With E4M as the variant, how does the protein stability index read?
**A.** 2.42

**Q.** Which protein stability index does the source give for Q20E here?
**A.** 2.79

**Q.** With Q20P as the variant, how does the protein stability index read?
**A.** 2.21

**Q.** Which protein stability index does the source give for A16H here?
**A.** 1.83

**Q.** Which protein stability index does the source give for A16P here?
**A.** 2.3

**Q.** Which protein stability index does the source give for A16N here?
**A.** 1.29

**Q.** For A16E, which protein stability index is on record?
**A.** 1.74

**Q.** Which protein stability index does the source give for A16W here?
**A.** 2.4

**Q.** For A16G, which protein stability index is on record?
**A.** 2.26

**Q.** Which protein stability index does the source give for A16T here?
**A.** 3.32

**Q.** For C18V, which protein stability index is on record?
**A.** 2.29

**Q.** For C18E, which protein stability index is on record?
**A.** 2.17

**Q.** Which protein stability index does the source give for C18S here?
**A.** 1.91

**Q.** With C18Y as the variant, how does the protein stability index read?
**A.** 2.52

**Q.** Which protein stability index does the source give for C18P here?
**A.** 2.26

**Q.** With C18F as the variant, how does the protein stability index read?
**A.** 1.64

**Q.** For L13C, which protein stability index is on record?
**A.** 1.35

**Q.** For L13W, which protein stability index is on record?
**A.** 1.94

**Q.** For L13G, which protein stability index is on record?
**A.** 1.88

**Q.** Which protein stability index does the source give for L13M here?
**A.** 2.17

**Q.** Which protein stability index does the source give for L13I here?
**A.** 2.33

**Q.** Which protein stability index does the source give for A8Y here?
**A.** 2.97

**Q.** For A8M, which protein stability index is on record?
**A.** 2.31

**Q.** For A8P, which protein stability index is on record?
**A.** 1.84

**Q.** With A8K as the variant, how does the protein stability index read?
**A.** 1.61

**Q.** Which protein stability index does the source give for A8G here?
**A.** 1.63

**Q.** For A8Q, which protein stability index is on record?
**A.** 1.64

**Q.** Which protein stability index does the source give for A8T here?
**A.** 1.97

**Q.** Which protein stability index does the source give for A8E here?
**A.** 2.17

**Q.** Which protein stability index does the source give for Y1F here?
**A.** 2.8

**Q.** For Y1C, which protein stability index is on record?
**A.** 2.58

**Q.** With Y1K as the variant, how does the protein stability index read?
**A.** 3.44

**Q.** For Y1P, which protein stability index is on record?
**A.** 2.12

**Q.** With L17S as the variant, how does the protein stability index read?
**A.** 2.41

**Q.** For L17T, which protein stability index is on record?
**A.** 2.26

**Q.** Which protein stability index does the source give for L17Y here?
**A.** 2.06

**Q.** With L17K as the variant, how does the protein stability index read?
**A.** 2.11

**Q.** With L17N as the variant, how does the protein stability index read?
**A.** 1.86

**Q.** For L17Q, which protein stability index is on record?
**A.** 1.87

**Q.** Which protein stability index does the source give for L17P here?
**A.** 2.08

**Q.** With L17R as the variant, how does the protein stability index read?
**A.** 2.25

**Q.** With W14P as the variant, how does the protein stability index read?
**A.** 3.34

**Q.** Which protein stability index does the source give for W14T here?
**A.** 1.98

**Q.** Which protein stability index does the source give for W14H here?
**A.** 1.34

**Q.** With W14D as the variant, how does the protein stability index read?
**A.** 3.34

**Q.** Which protein stability index does the source give for W14E here?
**A.** 2.52

**Q.** For L5N, which protein stability index is on record?
**A.** 1.59

**Q.** With L5E as the variant, how does the protein stability index read?
**A.** 2.21

**Q.** With L5S as the variant, how does the protein stability index read?
**A.** 1.5

**Q.** Which protein stability index does the source give for L5I here?
**A.** 3.07

**Q.** With L5F as the variant, how does the protein stability index read?
**A.** 4.05

**Q.** With L5W as the variant, how does the protein stability index read?
**A.** 1.96

**Q.** Which protein stability index does the source give for I23S here?
**A.** 2.85

**Q.** With I23N as the variant, how does the protein stability index read?
**A.** 1.7

**Q.** For I23A, which protein stability index is on record?
**A.** 1.75
